Data on 30 sequences can be found in the nanobody polyreactivity screen of Harvey et al. (2022).

This data set in a line: yeast display, Sf9 membrane polyspecificity reagent, FACS + sequencing; frameworks hold sequencing errors. The method, boiled down:
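A synthetic nanobody library was expressed on Saccharomyces cerevisiae BJ5465 by galactose induction for 36–48 hours. The library was stained for 1 hour at 4 °C with 10% biotinylated, detergent-solubilized Sf9 membrane reagent and enriched with streptavidin microbeads before FACS. Low and high (top ~1%) gates were set on anti-HA fluorescence for expression and streptavidin fluorescence for reagent binding, and each polyreactivity label reflects the gate of origin.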
Take “QVQLEESRGGLVQAGGSLRLSSADSGSTFDYYAKGWYRQAPGKERELVAAITSTGRTYYADSVKGRFTISRDNAKNTVYLQMNSLKPEDTAVYYCAADLPWGPLFDYWGQGTQVTVSS”: the “polyreactivity (PSR sort gate)” value is “low polyreactivity”.
Regarding “QVQLEESRRGLVQARGSLRLSCASSGYIFLYYALGCYRQAPGKERELVAAITTRGGRTYYADSVKGRFTISRDNAKNTVYVQMNSLKPEDTAVYYCAVEVSWSYYSYGYWGQGTQVTVSS”, the “polyreactivity (PSR sort gate)” value is “low polyreactivity”.
As to “QVQLEESVGGLVQAGGSLRLSCAASGSISYKYLMGWYRQAPGKEREFVASMTRIGGSTYYADSVKGRFTISRDNAKNTVYLQMNSLNAEDTAVYYCAADYAIGRLRRGDDYWGQGTQVTVSS”, the “polyreactivity (PSR sort gate)” value is recorded as “low polyreactivity”.
Then “QVQLEESVGGLVQAGGSLRLSCAASGSTFVYYGMGWYRQAPGKERELVAAITDIGDSTNYADSVKGRFTISRDNAKNTVYLQMNSLKPDDTAVYYCAASGRSVPYYGSPRNDYWGQGTQVTVSS”, with “low polyreactivity”.
Then “QVQLEESVGGLVQEGGSLRLTCAASGRIFGNTMGWYRQAPWKEMELVAAITRSGVSTYYADSVKGRFTSSRDNAKNTVYLQMNSLKPEDTAVYYCADASSYYRGHYDYWGQGTQVTVSS”, with “high polyreactivity”.
For “QVQLEETRGCLVQAGGSLRLSCAASGIILYAYAMGWYRQAPRKERELVAAITRRGGRTYYADSVKGRFTISRDNAKYTVYLQMNSLKPVDTAVYYGATVQSGRVRTYDYWGQGTLVTVSS”, the “polyreactivity (PSR sort gate)” value was “high polyreactivity”.
Then “QVQLEEYGGGLVQAGGSLRLSCAAAGFTCGGYAMGWYRQAPGKDRELVATITRVGSTNYADSVKGRFTISRDNAKNTVYLQMNSLKPEDTAVYYCNTRRVYGHGNAPYDSWGQATQVTVSS”, with “low polyreactivity”.
As for “QVQLGDSGGGLVQAGGSLRLSCAASGSIFVGYAMGWYRQAPGKERELVAAISWSGDSTYYAVSVKGRFTMSRDNAKNTVYLQMNSLKPEDTAVYYCAVDYAENGPRREVEYDYWGQGTQVTVSS”, the “polyreactivity (PSR sort gate)” value was “low polyreactivity”.
Then “QVQLGDSGGGLVQAGGSLRLSCAPSGSIFQRYAMGWYRLAPGKERELVAAISYNGGSTYYADSVKGRFTISRDNAKNTVYLQMNSLKPEDTAVYYCAARGYRKTRFDYWGQGTKVTVSS”, with “high polyreactivity”.
As for “QVQLGESGGGIVQAGGSLRLSCAASGIIFARYAMGWSRQAPGKERELVAAISRRGTSTYYADSVKGRFTISRDNAKNTVYLQMNSLKPEDTALYYCAARQLFYLPGPRVDAWGQGTQVTVSS”, the “polyreactivity (PSR sort gate)” value is on record as “high polyreactivity”.
For the sequence “QVQLGESGGGIVQAGGSLRLSCAASGIIFYPYTMGWYRQAPGKERELVAAINSGGSTYYADSVKGRFTISRDNAKNTVYLQMNSLKPEDTAVYYCAAEEALDWYDDWIVSYDYWGQGTQVTVSS”, the “polyreactivity (PSR sort gate)” value was “low polyreactivity”.
With “QVQLGESGGGLFQAGGSLRLSCAASGRTFVTYAMVWYRQAPGKERELVAAISKRGSRTYYADSVKGRFTISRDNAKNTVYLQMNTLKPEDTAVYYCAVVYSIYTRGYDYWGQGTQVTVSS”, the “polyreactivity (PSR sort gate)” value was “high polyreactivity”.
“QVQLGESGGGLLQAGGSLRLSCAASGRTISKNGMGWYRQAPGKERELVAAISGSGGTTYYADSVKGRFTISRDNAKNTVYLQMNSLKPEDTAVYYSADRYTVSRSGYWGLGTQVTVSS”: the “polyreactivity (PSR sort gate)” value is “high polyreactivity”.
Then “QVQLGESGGGLVPARGSLRLSRAASGSTFTTNAMGWYRQAPGKEREFVAAITSSGGSTYYADSVKGRFTISRDNAKNTVYLQMNSLNPEDTAVYYCIADGDPSQKLFGRSYDYWGQGTQVTVSS”, with “low polyreactivity”; and “QVQLGESGGGLVQAGGRLRLSCAASGFTFNTYAMGWYRQAPGKVRALVATITSDGSTTYADSVKGRFTISRDNAKNTVNLQMNSLKPEDTAVYYFNARVWVHRYYYYFTHIITYDYWGQGTQVTVSS”, with “low polyreactivity”; and “QVQLGESGGGLVQAGGSLRLCCAASGRIFVRYTRGWYRQAPGKERELVAAIDQRGGSTYYADSVKGRFTISRDNANNTVSLQLNSLKPEDTAVYYCARVASRTRPGYGYWGQGTQVTVSS”, with “low polyreactivity”.
Then “QVQLGESGGGLVQAGGSLRLICAASGSTFWTNDMGWYRQAPGKERELVAPISQSAGDTYYADSVKARFTISRDNSKNTFYLQMISLKPEDTAVYYCAADLVFYPFTWDGYYYWGQGTQVTVSS”, with “low polyreactivity”; and “QVQLGESGGGLVQAGGSLRLSCAASARNSSFYEMGWYRQAPGKGSELVAAINWDDGTTYYADSVMGRFTISRDNAQNNVYFQKNSLNPEDTAVYYCAVEGFSSAAYDFEYWGQGSQVTVSS”, with “high polyreactivity”.
For “QVQLGESGGGLVQAGGSLRLSCAASGFTFDVNAMGWYRQATGKERELFAGITTSDGSTYYADSVKGRFTISRDNAKNTVYLQMNSLQPEDTAVYYCAAAITWYQLYQRSGGDYWGQGTQVTVSS”, the “polyreactivity (PSR sort gate)” value is reported as “low polyreactivity”.
With “QVQLGESGGGLVQAGGSLRLSCAASGFTFQEYAMGWYRQAPGKDRELVAAITSGTTTNYADSVKGRFTISRDNAKNTVYLQMNSLKPEDTAVYYCNVRRQSGRYRVYEYDYWGQGTQVTVSS”, the “polyreactivity (PSR sort gate)” value was “low polyreactivity”.
Then “QVQLGESGGGLVQAGGSLRLSCAASGFTFTRYAMGWYRQAPGKERELVAAIRWSGGRTYFADSVKGRFTISRDNAKNTVYLEMNRLKPEDTAVYYCNAVFYDPRREYDYWGQGTQVTVSS”, with “high polyreactivity”; and “QVQLGESGGGLVQAGGSLRLSCAASGFTFYRYTLGWYRQEPGKERELVAAITWSGGNTYYADSVKGRFTISRDNAKNTVYLQMNSLKPEDTAFYYCAAYKPYSKYNYWGQGTQVTVSS”, with “high polyreactivity”.
For “QVQLGESGGGLVQAGGSLRLSCAASGGTFSQYAMGWYRHAPGKERELVARISRRGGSTSYADSVKGRFTISRDNAKNTVYLQMNSLKPEDTAVYYCAKDAPSVYPGRFGNTGGYAYDYWGQGTQVTVSS”, the “polyreactivity (PSR sort gate)” value was “high polyreactivity”.
Consider “QVQLGESGGGLVQAGGSLRLSCAASGGTFTSYAMGWYRQAPGKERELVAGITSSGGNTYYADSVKGRFTISRDNAKNTVYLQMNSLKPEDTAVYYCAAKSGRGRTMDYWGQGTQVTVSS”, for which the “polyreactivity (PSR sort gate)” value was “high polyreactivity”.
Take “QVQLGESGGGLVQAGGSLRLSCAASGIIFLGYAMGSYRQAPGKERELVAAFYSGVRTYYADSVKGRFTISRDNAKNTVYLQMNSLKPEDTAVYYCNATWTPYSSKQYYYWGLGTQVTVSS”: the “polyreactivity (PSR sort gate)” value is given as “low polyreactivity”.
As to “QVQLGESGGGLVQAGGSLRLSCAASGIIFYEYVMVWYRQAPGKEREFVATISSIGGSTYYADSVKGRFTISRDNAKNTVYLQMNSRKPADTAVYYCAADPDPVVAPGGNWYGDDYWGQGSQVTVSS”, the “polyreactivity (PSR sort gate)” value is listed as “high polyreactivity”.
“QVQLGESGGGLVQAGGSLRLSCAASGITFERNAMGWYRQAPGKERELVAAWSGGGTYYADSVKGRFTISRDNAKNTVYLQMDSLKPEDTAVYYCAADYRYDLSIGVNYWGQGTQVTVSS”: the “polyreactivity (PSR sort gate)” value is listed as “low polyreactivity”.
With “QVQLGESGGGLVQAGGSLRLSCAASGLTFDPNAMGWYRQAPGKERELVATITQTDGSTYYADSVKGRFTISRDNAKNTVYLQMNSLKPEDTAVYYCAVDVDEPRYRRPFHHDYWGQGTQVTVSS”, the “polyreactivity (PSR sort gate)” value is recorded as “low polyreactivity”.
For “QVQLGESGGGLVQAGGSLRLSCAASGLTLYLYTMGWYREAPGKEMELVASIDSGTSTKYADSVKGRFTISRDNAKNTVYLQMNSLKPEDTAVYYCAAGVWVTRYFRYYYWGQGTLVTVSS”, the “polyreactivity (PSR sort gate)” value is given as “low polyreactivity”.
Then “QVQLGESGGGLVQAGGSLRLSCAASGNTFGTYAMGWYRHAPGKERELVAAITWRGGRTTYADSVKGRFTISRDNAKNTVYLQMIRLIPEDTAVYYCAAVIHWWYATYDYWGQGTQVTVSS”, with “high polyreactivity”.
